Experimental data taken from patent US7041498 (SALK INSTITUTE FOR BIOLOGICAL STUDIES, dated 2006).

Target: T1, GAL4 linked to the FAR ligand binding domain (GAL4-FAR184-469) (yeast; rat, UniProt P04386 1-147)
T1 construct: range 1-147; Two-hybrid bait expressed in CV-1 cells from a CMV promoter vector; also called GAL4-FAR chimera; FAR LBD
Assay: mammalian two-hybrid in CV-1 cells, GAL4 UAS luciferase reporter

| Binder | binding result |
| --- | --- |
| VP16 transactivation domain linked to the LBD of VDR (VP-VDR92-427) (other, range 92-427) EFILTDEEVQRKREMILKRKEEEALKDSLRPKLSEEQQRIIAILLDAHHKTYDPTYSDFCQFRPPVRVNDGGGSHPSRPNSRHTPSFSGDSSSSCSDHCITSSDMMDSSSFSNLDLSEEDSDDPSVTLELSQLSMLPHLADLVSYSIQKVIGFAKMIPGFRDLTSEDQIVLLKSSAIEVIMLRSNESFTMDDMSWTCGNQDYKYRVSDVTKAGHSLELIEPLIKFQVGLKKLNLHEEEHVLLMAICIVSPDRPGVQDAALIEAIQDRLSNTLQTYIRCRHPPPGSHLLYAKMIQKLADLRSLNEEHSKQYRCLSFQPECSMKLTPLVLEVFGNEIS | no binding |
| VP16 transactivation domain linked to the LBD of RARα (VP-RAR156-462) (other, range 156-462) ESVRNDRNKKKKEVPKPECSESYTLTPEVGELIEKVRKAHQETFPALCQLGKYTTNNSSEQRVSLDIDLWDKFSELSTKCIIKTVEFAKQLPGFTTLTIADQITLLKAACLDILILRICTRYTPEQDTMTFSDGLTLNRTQMHNAGFGPLTDLVFAFANQLLPLEMDDAETGLLSAICLICGDRQDLEQPDRVDMLQEPLLEALKVYVRKRRPSRPHMFPKMLMKITDLRSISAKGAERVITLKMEIPGSMPPLIQEMLENSEGLDTLSGQPGGGGRDGGGLAPPPGSCSPSLSPSSNRSSPATHSP | no binding |
| VP16 transactivation domain linked to the LBD of mouse PPARα (VP-PPAR155-468) (other, range 155-468; Two-hybrid prey expressed in CV-1 cells) YCRFHKCLSVGMSHNAIRFGRMPRSEKAKLKAEILTCEHDLKDSETADLKSLGKRIHEAYLKNFNMNKVKARVILAGKTSNNPPFVIHDMETLCMAEKTLVAKMVANGVEDKEAEVRFFHCCQCMSVETVTELTEFAKAIPGFANLDLNDQVTLLKYGVYEAIFTMLSSLMNKDGMLIAYGNGFITREFLKNLRKPFCDIMEPKFDFAMKFNALELDDSDISLFVAAIICCGDRPGLLNIGYIEKLQEGIVHVLKLHLQSNHPDDTFLFPKLLQKMVDLRQLVTEHAQLVQVIKKTESDAALHPLLQEIYRDMY | no binding |
